# Laboratory results taken from patent publication US20120322073A1 (CELGENE, published 2012).
# Target: T1, human CRBN protein (cereblon), full-length 51 kDa (human, UniProt Q96SW2 1-442)
# T1 construct: also called human CRBN isoform 1 (NP-057386)
# Test: denaturing immunoblot
# Experimental: CGN-6-4-5 was diluted 1:10,000 dilution in 0.1% Tween PBS buffer. […] Peptide neutralization was performed by combining antibody with a five-fold (by weight) excess of blocking peptide in 500 μl PBS and incubating with constant rotation at room temperature for 2 hours.
# T1 sequence (Q96SW2 whole entry, canonical isoform): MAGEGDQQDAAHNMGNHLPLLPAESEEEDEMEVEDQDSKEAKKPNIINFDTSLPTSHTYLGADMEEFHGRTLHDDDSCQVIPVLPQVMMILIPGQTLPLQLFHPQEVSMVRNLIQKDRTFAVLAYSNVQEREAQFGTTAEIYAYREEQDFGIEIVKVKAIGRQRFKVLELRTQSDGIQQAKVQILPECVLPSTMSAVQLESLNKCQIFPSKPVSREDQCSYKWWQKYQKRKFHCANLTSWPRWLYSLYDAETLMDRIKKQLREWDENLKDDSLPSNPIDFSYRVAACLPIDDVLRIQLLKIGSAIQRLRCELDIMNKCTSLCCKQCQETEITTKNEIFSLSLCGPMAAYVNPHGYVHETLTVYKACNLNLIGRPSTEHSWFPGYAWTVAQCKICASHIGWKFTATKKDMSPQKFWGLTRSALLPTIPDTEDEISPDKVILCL
binder,measurement,value
"Rabbit monoclonal antibody CGN-6-4-5 (antibody, V domains shown, Rabbit IgG from a CGN-6 hybridoma clone of rabbits primed with residues 65-76 of human CRBN; also called monoclonal anti-CRBN antibody) VH: QSVEESGGRLVTPGTPLTLTCTVSGFSLSRYGVSWVRQAPGKGLEHIGYIYSDPGMTFYATWAKGRFTISKTSSTTVDLKMTSPTIEDTATYFCARGTPLASYSTWGPGTLVTISL VL: AQVLTQTPASVSAAVGGTVTINCQSSENIYKNNYLSWFQQKPGQPPKLLIYQASTLASGVPSRFKGSGSGTRFSLTISDLECDDAATYYCAGGYSGNIFTFGGGTEVVVKG",binding result,binds
